In one data set the target is hRPA;RPAIN (human;human, UniProt P27694;P15927;P35244;Q86UA6 1-616;1-270;1-121;1-219, |). The data set is described as follows: EMSA. (In general: Mobility shift assays separate free from complexed probe on a gel.)
Another data set addresses hRPA (human, UniProt P27694;P15927;P35244 1-616;1-270;1-121). The data set is described as follows: EMSA.

Results on one molecule are retold here after paper doi:10.1101/2022.02.05.479199.

Sequence of hRPA;RPAIN (P27694 whole entry, chain 1 of 4): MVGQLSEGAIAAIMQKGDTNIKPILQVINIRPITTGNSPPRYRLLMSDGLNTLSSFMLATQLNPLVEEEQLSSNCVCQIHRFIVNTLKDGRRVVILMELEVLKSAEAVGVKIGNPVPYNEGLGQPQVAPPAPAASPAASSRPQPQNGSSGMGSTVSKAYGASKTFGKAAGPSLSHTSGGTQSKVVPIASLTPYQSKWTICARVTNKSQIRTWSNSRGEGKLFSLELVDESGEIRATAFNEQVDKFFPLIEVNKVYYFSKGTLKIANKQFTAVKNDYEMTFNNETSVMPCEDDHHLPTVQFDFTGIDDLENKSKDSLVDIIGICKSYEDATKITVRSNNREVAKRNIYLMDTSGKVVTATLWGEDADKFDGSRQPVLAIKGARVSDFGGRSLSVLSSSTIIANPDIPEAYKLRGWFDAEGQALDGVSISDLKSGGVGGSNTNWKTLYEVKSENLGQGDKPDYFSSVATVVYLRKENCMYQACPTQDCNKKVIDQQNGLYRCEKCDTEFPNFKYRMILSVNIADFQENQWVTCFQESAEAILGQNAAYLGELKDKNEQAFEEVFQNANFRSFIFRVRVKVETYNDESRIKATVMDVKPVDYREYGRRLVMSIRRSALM
Sequence of hRPA;RPAIN (P15927 whole entry, chain 2 of 4): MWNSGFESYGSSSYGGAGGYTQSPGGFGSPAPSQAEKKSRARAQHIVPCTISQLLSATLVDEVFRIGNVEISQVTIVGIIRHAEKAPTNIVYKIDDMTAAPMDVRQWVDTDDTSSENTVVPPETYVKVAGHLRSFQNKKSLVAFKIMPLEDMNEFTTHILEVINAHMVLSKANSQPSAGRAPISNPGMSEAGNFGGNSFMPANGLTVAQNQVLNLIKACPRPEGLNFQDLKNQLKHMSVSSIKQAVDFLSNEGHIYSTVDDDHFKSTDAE
Sequence of hRPA;RPAIN (P35244 whole entry, chain 3 of 4): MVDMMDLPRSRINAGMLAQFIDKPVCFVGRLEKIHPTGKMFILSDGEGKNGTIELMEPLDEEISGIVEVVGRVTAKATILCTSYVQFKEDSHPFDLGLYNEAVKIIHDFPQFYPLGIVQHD
Sequence of hRPA;RPAIN (Q86UA6 whole entry, chain 4 of 4): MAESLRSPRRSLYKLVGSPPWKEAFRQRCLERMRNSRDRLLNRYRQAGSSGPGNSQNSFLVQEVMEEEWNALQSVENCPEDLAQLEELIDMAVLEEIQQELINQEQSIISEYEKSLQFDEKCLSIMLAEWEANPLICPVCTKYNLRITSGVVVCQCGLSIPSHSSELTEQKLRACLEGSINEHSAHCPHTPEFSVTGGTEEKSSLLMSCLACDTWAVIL
Sequence of hRPA (P27694 whole entry, chain 1 of 3): as the sequence (P27694 whole entry, chain 1 of 4) above
Sequence of hRPA (P15927 whole entry, chain 2 of 3): as the sequence (P15927 whole entry, chain 2 of 4) above
Sequence of hRPA (P35244 whole entry, chain 3 of 3): as the sequence (P35244 whole entry, chain 3 of 4) above

Consider TTTTTTTTTTTTTTTTTTTTTTTTTTTTTT (ssDNA) [5'-Cy5-(dT)30], for which the dissociation constant Kd with hRPA;RPAIN came to 11.8 nM; in the data set with hRPA it was 10.5 nM.

A word on the Kd: it is the constant that tells how readily two partners part at equilibrium. Low readings indicate higher affinity, high ones lower affinity.
